Numbering of substitutions follows the chain as printed.
T1: biotinylated 6His tag-AviTag-linked mature human IL-33 (residues 112 to 270) (human, UniProt O95760 112-270, biotin on the AviTag portion (BirA))
T1 construct: made in E. coli; also called biotinylated human IL-33 protein
T1 sequence: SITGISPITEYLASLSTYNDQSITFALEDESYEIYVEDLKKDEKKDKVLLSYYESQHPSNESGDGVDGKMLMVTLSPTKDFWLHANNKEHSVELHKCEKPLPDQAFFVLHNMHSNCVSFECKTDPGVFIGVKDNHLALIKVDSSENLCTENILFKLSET

T2: 6His-AviTag-linked cynomolgus monkey IL-33 (residues 112 to 269) (cynomolgus monkey, UniProt O95760 112-269 (human entry), biotin on the AviTag portion (BirA) in the SPR of Example 7; used without biotinylation in Example 10)
T2 construct: GenBank EHH57404 printed; also called cynomolgus monkey IL-33 protein; mature cynomolgus monkey IL-33
T2 chain: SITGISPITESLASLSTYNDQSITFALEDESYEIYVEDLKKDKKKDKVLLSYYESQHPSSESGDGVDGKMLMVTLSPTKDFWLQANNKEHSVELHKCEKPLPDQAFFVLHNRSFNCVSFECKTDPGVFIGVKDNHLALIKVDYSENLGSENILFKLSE

B1: A00-0036 (Fab) (Fab, V domains shown)
VH: EVQLLESGGGLVQPGGSLRLSCAASGFTFSNYYMHWVRQAPGKGLEWVSSISSSSSYIYYADSVKGRFTISRDNSKNTLYLQMNSLRAEDTAVYYCARLGTRHDAFDIWGQGTLVTVSS
VL: QSVLTQPPSASGTPGQRVTISCSGSSSNIGNNAVNWYQQLPGTAPKLLIYASNMRRLGVPDRFSGSKSGTSASLAISGLRSEDEADYYCAAWDDSQKAVVFGGGTKLTVL
notes: parental clone as Fab; also called V30; parental clone (Fab)
B2: A25-2D01 (Fab) (Fab, V domains shown)
VH: B1 VH with S53A, S54R, G100A, H103N, D104N
VL: B1 VL with N31R, R56V, L57I, V99W
notes: Fab secreted by E. coli, tested as culture supernatant; also called V9
B3: A26-1F02 (Fab) (Fab, V domains shown)
VH: B1 VH with S53A, S54R, I58L, G100A, D104V
VL: B1 VL with L57P, A90E
notes: Fab secreted by E. coli, tested as culture supernatant; also called V18
B4: A25-3H04 (Fab) (Fab, V domains shown)
VH: B1 VH with N31R, S53A, S54Q, Y57H, K65E, G100A, H103Q, D104N
VL: B1 VL with N31R, L57S, A90S, A98V
notes: Fab secreted by E. coli, tested as culture supernatant; also called V17
B5: A25-2H11 (Fab) (Fab, V domains shown)
VH: B1 VH with S53A, S54R, G100A, H103N, D104N
VL: B1 VL with N31S, N35S, R56G, L57S, A98V
notes: Fab secreted by E. coli, tested as culture supernatant; also called V14
B6: A25-2C07 (Fab) (Fab, V domains shown)
VH: B1 VH with S53A, S54R, G100A, H103N, D104N
VL: B1 VL with R56G, L57S, A98G, V99Q
notes: Fab secreted by E. coli, tested as culture supernatant; also called V13
B7: A25-2E04 (Fab) (Fab, V domains shown)
VH: B1 VH with S53A, S54R, G100A, H103N, D104N
VL: B1 VL with S26C, N31R, R56V, L57I, A90E, A98G
notes: Fab secreted by E. coli, tested as culture supernatant; also called V11
B8: A25-2C02 (Fab) (Fab, V domains shown)
VH: B1 VH with S53A, S54R, G100A, H103N, D104N
VL: B1 VL with N31R, R56V, L57S, A90W, A98V, V99G
notes: Fab secreted by E. coli, tested as culture supernatant; also called V15
B9: A25-3G05 (Fab) (Fab, V domains shown)
VH: B1 VH with N31H, S53A, S54L, K65R, G100A, H103R
VL: B1 VL with R56G, A90G, A98V, V99F
notes: Fab secreted by E. coli, tested as culture supernatant; also called V16
B10: A25-2B02 (Fab) (Fab, V domains shown)
VH: B1 VH with S53A, S54R, G100A, H103N, D104N
VL: B1 VL with N31R, R56V, A90W
notes: Fab secreted by E. coli, tested as culture supernatant; also called V10
B11: A25-2C06 (Fab) (Fab, V domains shown)
VH: B1 VH with S53A, S54R, G100A, H103N, D104N
VL: B1 VL with N31R, R56V, L57I, A90G, A98R, V99Y
notes: Fab secreted by E. coli, tested as culture supernatant; also called V12
B12: A26-2B01 (Fab) (Fab, V domains shown)
VH: B1 VH with S53A, S54R, G100A, D104N
VL: B1 VL with V99W
notes: Fab secreted by E. coli, tested as culture supernatant; also called V20
B13: A26-2A05 (Fab) (Fab, V domains shown)
VH: B1 VH with S53A, S54R, G100A, D104G
VL: B1 VL with L57M, V99F
notes: Fab secreted by E. coli, tested as culture supernatant; also called V19
B14: A23-1A05 (Fab) (Fab, V domains shown)
VH: B1 VH with S53A, S54R, S56R, I58H, G100A, D104N
VL: B1 VL with N35S, R56V, L57I, A90G, V99L
notes: Fab secreted by E. coli, tested as culture supernatant; also called V8
B15: A00-0070 (Fab) (Fab, V domains shown)
VH: EVQLLESGGGLVQPGGSLRLSCAASGFTFSDYYMNWVRQAPGKGLEWVSSISSSSSYIYYADSVKGRFTISRDNSKNTLYLQMNSLRAEDTAVYYCARDIGGMDVWGQGTLVTVSS
VL: QSVLTQPPSASGTPGQRVTISCTGSSSNIGAVYNVHWYQQLPGTAPKLLIYRNNQRPSGVPDRFSGSKSGTSASLAISGLRSEDEADYYCQSYDSSRWVFGGGTKLTVL
notes: parental clone as Fab; also called V29; parental clone (Fab)
B16: A13-1F05 (Fab) (Fab, V domains shown)
VH: B15 VH with S53R, S54Y, S56G
VL: B15 VL
notes: Fab secreted by E. coli, tested as culture supernatant; also called V5
B17: A13-1F07 (Fab) (Fab, V domains shown)
VH: B15 VH with D31V, S53R, S54Y, S56G, I58V
VL: B15 VL with S96R
notes: Fab secreted by E. coli, tested as culture supernatant; also called V6
B18: A12-1E04 (Fab) (Fab, V domains shown)
VH: B15 VH with S53R, S54Y, S56G, I58V
VL: B15 VL with N34D
notes: Fab secreted by E. coli, tested as culture supernatant; also called V2
B19: A13-1G05 (Fab) (Fab, V domains shown)
VH: B15 VH with M34V, S53R, S54Y, S56G, I58V
VL: B15 VL
notes: Fab secreted by E. coli, tested as culture supernatant; also called V7
B20: A12-1H08 (Fab) (Fab, V domains shown)
VH: B15 VH with N35D, S53R, S54A, I58V
VL: B15 VL
notes: Fab secreted by E. coli, tested as culture supernatant; also called V4
B21: A10-1C04 (Fab) (Fab, V domains shown)
VH: B15 VH with S53R, S54Y
VL: B15 VL with N34D, S92T
notes: Fab secreted by E. coli, tested as culture supernatant; also called V1
B22: A12-1H04 (Fab) (Fab, V domains shown)
VH: B15 VH with N35D, S53R, S54Y, S56G, I58V
VL: B15 VL
notes: Fab secreted by E. coli, tested as culture supernatant; also called V3

Columns and labels:
[1] = biological target: T1, biotinylated 6His tag-AviTag-linked …; test: SPR, IL-33 on chip, Fab supernatant as analyte
Description: (§1) The library after the enrichment was used to construct a library of Escherichia coli secreting and expressing Fab. The culture supernatants of several hundreds of clones of Escherichia coli were subjected to measurement of dissociation rate constant (koff) by surface plasmon resonance (SPR) (ProteOn XPR36, available from Bio-Rad Laboratories, Inc.). The biotinylated human IL-33 protein (4 μg/mL) and cynomolgus monkey IL-33 protein (4 μg/mL) were loaded as ligands on a sensor chip (NLC sensor chip, available from Bio-Rad Laboratories, Inc.), to immobilize the human IL-33 protein at an amount equivalent to 1300 to 1600 RU, and the cynomolgus monkeyIL-33 protein at an amount equivalent to 1100 to 1500 RU. The culture supernatant of Escherichia coli was then loaded thereon as analyte to obtain a sensorgram with association phase of one minute and dissociation phase of 10 to 30 minutes. The sensorgram was subjected to interspot correction and blank correction using an SPR data analysis program (ProteOn Manager v3.1.0, available from Bio-Rad Laboratories, Inc.), and then values of koff were determined by off-rate analysis of Langmuir model.

[2] = biological target: T2, 6His-AviTag-linked cynomolgus monkey …; test: SPR, IL-33 on chip, Fab supernatant as analyte
Description: as §1

Binder | Human IL-33 Binding Amount (RU) [1] | koff [1] | Cynomolgus Monkey IL-33 Binding Amount (RU) [2] | koff [2]
B1 | 78 RU | 0.0152 s⁻¹ | 59 RU | 0.0347 s⁻¹
B2 | 950 RU | 1e-05 s⁻¹ | 832 RU | 1e-05 s⁻¹
B3 | 96 RU | 1e-05 s⁻¹ | 100 RU | 1e-05 s⁻¹
B4 | 0.62 RU | 1e-05 s⁻¹ | 179 RU | 1e-05 s⁻¹
B5 | 534 RU | 1.22e-05 s⁻¹ | 492 RU | 2.57e-05 s⁻¹
B6 | 334 RU | 3.41e-05 s⁻¹ | 330 RU | 7.37e-05 s⁻¹
B7 | 195 RU | 1.27e-05 s⁻¹ | 199 RU | 1e-05 s⁻¹
B8 | 930 RU | 1e-05 s⁻¹ | 839 RU | 1e-05 s⁻¹
B9 | 135 RU | 1.34e-05 s⁻¹ | 143 RU | 2.02e-05 s⁻¹
B10 | 256 RU | 1e-05 s⁻¹ | 237 RU | 1e-05 s⁻¹
B11 | 480 RU | 1.36e-05 s⁻¹ | 501 RU | 1.59e-05 s⁻¹
B12 | 364 RU | 1e-05 s⁻¹ | 363 RU | 1e-05 s⁻¹
B13 | 153 RU | 1e-05 s⁻¹ | 147 RU | 1e-05 s⁻¹
B14 | 52 RU | 1.58e-05 s⁻¹ | 54 RU | 2.61e-05 s⁻¹
B15 | 571 RU | 0.00427 s⁻¹ | 270 RU | 0.00522 s⁻¹
B16 | 127 RU | 1.32e-05 s⁻¹ | 171 RU | 5.79e-05 s⁻¹
B17 | 112 RU | 1e-05 s⁻¹ | 151 RU | 3.48e-05 s⁻¹
B18 | 414 RU | 2.19e-05 s⁻¹ | 512 RU | 5.58e-05 s⁻¹
B19 | 59 RU | 1e-05 s⁻¹ | 80 RU | 5.45e-05 s⁻¹
B20 | 77 RU | 1e-05 s⁻¹ | 102 RU | 7.51e-05 s⁻¹
B21 | 26 RU | ≤ 1e-05 s⁻¹ | 20 RU | 0.000165 s⁻¹
B22 | 94 RU | 1.94e-05 s⁻¹ | 131 RU | 4.83e-05 s⁻¹

Source: patent publication US20240002495A1 (MITSUBISHI TANABE PHARMA, published 2024)
